In the nanobody polyreactivity screen of Harvey et al. (2022):

Experiment: yeast display, Sf9 membrane polyspecificity reagent, FACS + sequencing; frameworks hold sequencing errors
Summary of the method: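 Using colony PCR, genes from sorted yeast display clones were amplified, then sequenced on MiSeq at 2 × 250 and filtered by CDR length. The clones had been stained with 10% biotinylated, detergent-solubilized Sf9 membrane reagent for 1 hour at 4 °C and sorted by FACS into low and high (top ~1%) gates on anti-HA and streptavidin fluorescence. Polyreactivity labels come from the gate of origin.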

Sequence | polyreactivity (PSR sort gate)
QVQLVESGGGLVQAGGSLRLSCAASGRILAANAMGWYRQAPGKERELVAAISWSGGRTYYADSVKGRFTISRDNAKNTVYLQMNSLKPEDTAVYYCIKLALAGYDYWGQGTQVTVSS | high polyreactivity
QVQLVESGGGLVQAGGSLRLSCAASGIIFFPYPMGWYRQAPGKERELVASINISDSSTYYADSVKGRFTISRDTAKNTVDLQMNSLKPEDTAVYYCAADNRGDSWYWHGYWGQGTQVSVSS | low polyreactivity
QVQLVESGGGLVQAGGILRLSCAASGFIFRKYAMGWYRQAPGKERELVAAINKSGGSTYYADSVKGRFTISRDNAKNTVYLQMNSLKPEDSAVYYCATVRTYRPPVRRGYWGQGTLVTVSS | high polyreactivity
QVHLVESGGGLVQAGGSLRLICAASVFNLDWYVMGWNRQAPGKERQLVAAISSSGGRTYNADSVKGRFTISRDKAKNTVYLQMNSLKPEDTAVYYCAARNKYGGYPYGYDYWGQGTQVTVSS | high polyreactivity
QVQLVESGGGLVQAGGSLRLSCAASGSIFADYAMGWYRQAPGKERELVAAISYNGDSTYYADSVKGRFTISRDNAKNTVYLQMNSLKPEDTAVYYCNAAARRYTSVFYTSGYTFDYWGQGTQVTVSS | low polyreactivity
QVQLVESGGGLVQAGGSLRLSCAASGRIFWGNAMGWYRQAPGKERELVAAINWSGGSTYYADSVKGRFTISRDNAKNTVYLQMNTLKPEDTAVYYCAADANGIVRYYYWGQGTQVTVSS | low polyreactivity
QDQLVESGGGLVQAGGSLRLSCAASGRTIYQNAMGWYRQAPGKERELVAAISRSGGSTYYADSVKGRFTISRDNAKNTVYLQMNSLKPEDTAVYYCAADPRSYGGGYDYWGQGPQVTVSS | high polyreactivity
QVQLVESGGGLVQAGGSLRLSCAASGFIFYRNTMGWYRQAPGKEREFVAAIRWRGGSTYYADSVKGRFTISRDNAKNTVYLQMNSLKPEDTAVYYCAADSRPVYSGFEYWGQGTQVTVSS | high polyreactivity
QVQLVESGGGLVQAGGSLRLSCAASGRIFGNNVMGWYRQAPGKERELVASINYSGRTYYADSVKGRFTISRDNAKNTVYLQMNSLKPEDTAVYYCAARRYAWFYPYVTYDYWGQGTQVNVSS | high polyreactivity
QVQLGESGGGLVQAGGSLRLSCAASGRTFWSYAMGWYREAAGKERELVAAITSSGGTTNDADSVKGRFTISRDNAKNTVYLQMNSLKPEDTAVYYCAAYSWYFGSRYDYWGQGTQVTVSS | low polyreactivity
QVQLVESGGGLVQAGGSLRLSCAASGRIFWTNDMGWYSKAPGKERELVAGITWRGGSTYYADSVKGRFTISRDNAKNTVYLQMNSLKPEDTAVYYCATRYRRVYTWYDYWGQGTQVTVSS | high polyreactivity
QVQLVESGGGLVQAGGSLRLSCAASGRIIDFYTMGWYRQAPGKERELVAGINGSGASTYYADSVKGRFTISRDNAKNTVYLQMNCLKPEDTAVYYCAKDPGYYDDYDYWGQGTQVTVSS | low polyreactivity
QVQLVESGAGLVQAGGSLRLSCAASGRTFHGYAMGWYRQAPRKERELLARINWSDGRTYYADSVKGRFTISRDNAKNTVFLQMNSLKPEDTAVYYCAADKTVSYAPAWYYYWGQGTQVTVSS | low polyreactivity
QVQLVESGGALDQAGGSLRLSCAASGRIFKWYAKGWYRQAPGKERELVATISWSGGSTYYADSVKGRFTISRDNAKKTVYLQMNSLKPEDTAVYYCNADTWLALPGFDYWGQGTQVTVSS | high polyreactivity
QVQLVESGGGLVQAGGSLRLSCAASGSTFVRNAMGWYRQAPGKERELVAAITSSGGSTYYADSVKGRFTISRDNAKNTVYLQMNSLKPEDTAVYYCNAELGSDTANYDYWGQGTQVTVSS | low polyreactivity
QVQLVESGGGLVQAGGSLRLSCAASGRTFPVYAMGWYRQAPGKERELVAAIRFSGGSTYYADSVKGRFTISRDNAKNTVYLQMNSLKPEDTAVYYCAADDWSWSTAWVPWYNYDYWGQGTQVTVSS | low polyreactivity

Sequence | polyreactivity (PSR sort gate)
QVQLVESGGGLVQAGGSLRLRGAASGSIFVYYAMGWYRPAPGKERELVASISESDGSTSYADSVKGRFTISRDNAKNTVYLQMNSLKPEDTAVYYCAADPYFYWYSPSFDYWGQGTQVTVSS | low polyreactivity
QVQLVESGGALVQAGGSLRLSCAASGSIFFSYAMGWYRQAPGKERELVAAISTSGGNTYYADSVKGRFTISRDNAKHTVYLQMNSLKPEDTAVYYCNDRGSYPPYRSYGYWGQGTQVTVSS | low polyreactivity
QVQLVESGGGLVQAGGSLRLSCAASGSIFILNAMGWYRQAPGKERELGAAISWSGGRTNYADSVKGRFTISRDNAKNPVYLHMNSLKPEDTAVYYCAARVTPYRGFYYWGQGTQVTVSS | high polyreactivity
QVQLVESGGGLVQAGGSLRLSCAASGSTFSGYAMGWYRQAPGKERELVAAITSGGITNYADSVKGRFTISLDNAKNTLYLQMNSLKPEDTAVYYCAKSVSGIGVGYDYWGQGTQVTVSS | low polyreactivity
QVQLVESGGGLVQAGGSLRLSCAASGSTFTVNGMGWYRQAPGKERELVASITWSGGSTYYADSVKGRFTISRDNAKNTVYLQLNSLKPEDTAVYYCNAVDTRVPSIRFDYWGQRTQVTVSS | low polyreactivity
QVQLLESGGGLVQAGGSLRLSCAASGRTFWYYVMGWYRQAPGKERELFAAITSSGGSTYYADSVKGRFTISRDNAKNSVYLQMNSLKAEDTSVYYCGAAAYTRGYYWGQGTEVTVSS | low polyreactivity
QVQLQESGGGLAQAGGSLRLTCAASGTIFPADSMGWYRQAPGKERELVAGITSGANTYYADSVKGRFTISHDNAKNTVYLQMDSLIPEDIAVYYCGAPGSSTYDLEYWGQGTQVTVSS | high polyreactivity
QVQLVESGGGLVQAGGSLRLSCAASGSTFYGNDMGWYRQAPGKERELVAAISSGGSTNYADSVKGRFTISRDNAKNTVYLQMNSLKPEDTAVYYCAADDTPDTISGSDYWGQGTQVTVSS | low polyreactivity
QVQLVESGGGLVQAGGSLRLSCAASGRTFRRYAMGWYRQAPGKERELVAAITNRGASTYYADSVKGRFTISRDNAKNTVYLQMNSLKPEDTAVYFCNTDPVSGLVWKGTEYDYWGQGTQVTVSS | low polyreactivity
QVQLVESRGGLVQAGGSLRLSCAASGSIFDSYAMGWYRQAPGKERELVADISSGGSTYYADSVKGRFTISRDNAKNTVYLQMNSLKPEDTAVYYCAAQYVYYFYGDEAFTDDYWGQGTQVTVSS | low polyreactivity
QVQLVESGGGLVQAGGSLRLSCAASGSIFGFKVMGWYRQEPGKERELVAAITYSGGSTYYADSVKGRFTISRANAKNTVYIQMNSLKPEDTAVYYCAADTFTPYWWYSSLDEYWGQGTQVTVSS | high polyreactivity
QVQLVESGGGLVQAGGSLRLSCAASGSTFIGNAMGRYRQAPGKERELVAAITRSGGSTFYADSVKGRFTISRDYAKNTVYLQMNSLKPEDTAVYYCAARTRRGLARYDYWGQGTQVTVSS | high polyreactivity
QVQLVESGGGLVQAGGSLRLSCAASGIFDYYAMGWYRQAPGKERELVAAINSSGGSTYYADSVKGRFTISRDNAKNTVYLQMNSLKPEDTAVYYCAAGRYAYLFNYWGQGTQVTVSS | high polyreactivity
QVQLVESGGGLVQAGGSLRLSCAASGITFRYYAMGWYRQAPGKERELVARITTDGSTHYADSVKGRFTISRDNAKNTVYLQMNSLKPEDTAVYYCNARHRNLAEYDYWGQGTQVTVSS | low polyreactivity
QVQLVESGGGLVQAGGSLRLSCAASGSIFVRYTMGWYRQAPGKERELVAAISWGGGSTYYADSVKGRFTISRDNAKNTVYLQMNSLKPEDTAVYYCNKRYIQLYDYWGQGTQVTVSS | low polyreactivity
QVQLVESGGGLVQAGGSLRLSCAASGFIFWSYAMGWYRQAPGKERELVAAINTSTGRTYYADSVKGRFTISRDNAKNTVYLQMNSLKPEDTAVYYCAADLPWGPLFDYWGQGTQVTVSS | low polyreactivity
